# Tested on: HEK293 cells
# Type: cell-based, human
# Conditions: luminescence from secreted Gluc in supernatant 24 hours after transfection of HEK293 cells; circular RNA encoding Gluc with the named IRES (UTR truncated to 675 nt)
row,Molecule,Expression
1,"Dolphin morbillivirus (nucleic acid, listed as Morbillivirus sp., chemistry not fully specified; the letters are possibly those of the target site) DNA: ACCAGACAAAGCTGGCTAGGGGTAGAATAACAGATAATGATAAATTATCATACTTAGGATTAATGATCCTATCAATTGGCACAGGATTTGGATAAAGGTTCACAGTC",1.22E+05
2,Feline infectious peritonitis virus (nucleic acid) DNA: ACTTTTAAAGTAAAGTGAGTGTAGCGTGGCTATAACTCTTCTTTTACTTTAACTAGCCTTGTGCTAGATTTGTCTTCGGACACCAACTCGAACTAAACGAAATATTTGTCTCTCTATGAAACCATAGAAGACAAGCGTTGATTATTTCACCAGTTTGGCAATCACTCCTAGGAACGGGGTTGAGAGAACGGCGCACCAGGGTTCCGTCCCTGTTTGGTAAGTCGTCTAGTATTAGCTGCGGCGGTTCCGCCCGTCGTAGTTGGGTAGACCGGGTTCCGTCCTGTGATCTCCCTCGCCGGCCGCCAGGAGA,1.35E+05
3,"Grapevine associated narnavirus-1 (nucleic acid, listed as Narnavirus sp.) DNA: GCCCGGGGGGTGCAGTCCTGTGAAAGGGTCTGCACCATACTATATATGTATATGATTACATCCCAAAAGGCGACTTCGTTCAGGTTTTAAATCTGACGTAGGTCCAGTAAATAAGCATGTCAAAACATGTAAGTTTATCCTGTAATCTACTCTCATAAGATGAGATAAGATGATATTGCAGTTCCCATGTAAATAAATCCATTATGAATTCATTCATATAAGGTAGAAGTGGTAACTATGGTTGAAACATTAATATAAAACGGTCATTTTGCATGAACGTCATTAAGGAACTGGCATACCAATGTCTATTTAGTGACTATGATATTTAGAGTATCCCTTATATTAATTAACAATTATTCCTTTTAGCATATCATCCGACAACAAATTTTAAAAGAAGAAATATTACTCATTAAAA",1.30E+05
4,"Enterovirus sp. isolate CPML (nucleic acid, listed as Enterovirus sp.) DNA: ACTCTGGTATCACGGTACCTTTGCACGCCTATTTTATACCCCTTCCCCATCGTAACTTAGAAGCAACAAACAAACTGCCCAATAGCAGCACAACACCCAGTTGTGTTAGGGGCAAGCACTTCTGTTTCCCCGGAAGGGTCTGACGGTATGCTGTACCCACGGCAGAAGTATGACCTACCGTTAACCGGCCATGTACTTCGAGAAGCCTAGTACCATTATGAAGGTTGATTGATGTTACGCTCCCCAGCAACCCCAGCTGGTAGTTCTGGTCGATGAGTCTCGGCATTCCCCACGGGCGACCGTGGCCGAGGCTGCGTTGGCGGCCAGCCTACACCATACGGTGTAGGACGTCAAGATACTGACATGGTGTGAAGAGCCTATTGAGCTACGTGGTAGTCCTCCGGCCCCTGAATGCGGCTAATCCTAACTCCGGAGCATCCGCCAGTAAGCCCACTGGAAGGGTGTCGTAATGCGAAAGTCTGGAGCGGAACCGACTACTTTGGGTGTCCGTGTTTCCTGTTTTACTTATTGTTTGGCTGCTTATGGTGACAACTTATAGTTATCATCATAAGCTACTTGGTCTTGCCAACCGGAGAATTATTTGGTTATTTGTTGGTTTCATAAACCTACAGTCGTATTTTCCTGTCTTATTAATTGTTCTCAAAATTAACAACA",6.83E+07
5,"Enterovirus AN12 (nucleic acid, listed as Enterovirus sp.) DNA: TACCGCTGCACCAGTGAGCTGGTACGCTAGTACCTTCGCACGGAGTAGATGGCATCCCCCACCCCGTAACTTAGAAGCAAAGTACACATCTGGCCAATAGTGGCGCTGCATCCAGCCGCGCAACGGTCAAGCACTTCTGTTTCCCCGGTCCGCAAGGGTCGTTATCCGCCCAGTCCACTACGGAAAGCCTACTAACCATTGAAGCTATCGAGAGGTTGCGCTCGGCCACGACCCCGGTGGTAGCTCTGAGTGATGGGGCTCGCAAACACCCCCGTGGTAACACGGATGCTTGCCCGCGCGTGCACTCGGGTTCAGCCTATTGGTTGTTCACCTCAACATAGTGTAAATGGCCAAGAGCCTACTGTGCTGGATTGGTTTTCCTCCGGAGCCGTGAATGCTGCTAATCCCAACCTCCGAGCGTGTGCGCACAATCCAGTGTTGCTACGTCGTAACGCGTAAGTTGGAGGCGGAACAGACTACTTTCGGTACTCCGTGTTTCTTTTGTTTTATTTTGAATTTTATGGTGACAATTGCTGAGATTTGCGAATTAGCGACTCTACCGCTGAACATTGCCCTGTACTACCTAATCGCATTTCACAAAACCTCAGAGATACCAAGCTCTTACATTGATCTGCTTGTTTTCCTGAATCTCAAATATAAATTGGAACAAGCAAA",3.87E+06
6,Megirivirus A LY (nucleic acid) DNA: TTCGGGACACTGGATGGGCGACTTGGTGGGGCTGCCACTCTATCTTGACCTTTCGTTACTGACTTTCGGATCTCTGACTCCTCCTTGTCTCTTGCGTTTGGTCCACGGACGGACTAATTGGAATGTTTACTGGCTAAGCCTCGTTCTGAAATACCCTAGCCAATGGGTTGTAGTAGGATCCTGGTGTTTCCATTAAACCTCTTCCGACCATAGTAGCTAGAGTTATGGCTGTGTAGGATGTGGGTAAGACCGCTTTTTGCGTATCTCCCACAAGACACCGGATTATGGATGTGTCCGCTGGATAAGGCTCGAAACCTCCCAACTGAAGGTGGTGCTGAAATATTGCAAGCCTAGGTTGTGTAGAGGCAAGTAGATGCCTGCCGCGACATTCGTCTTCCGCCCTTTTGGGTTAGTAGTGTACCTACATGGACGTGGGGCTGGGAATCCCCACCTTGCATAACACTGGTTGATAGACCTGCGGCTGGTCAAGTTACTATGGTATAACCAGTTGAAATGGCT,1.80E+06
7,Farmington virus (nucleic acid) DNA: ACGACGCATAAGCAGAGAAACATAAGAGACTATGTTCATAGTCACCCTGTATTCATTATTGACTTTTATGACCTATTATTAGACCCTTCACGGGTAAATCCTTCTCCTTGCAGTTCTCGCCAAGTACCTCCAAAGTCAGAACG,1.22E+05
8,Avian infectious bronchitis virus (nucleic acid) DNA: ACTTAAGATAGATATTAATATATATCTATTACACTAGCCTTGCGCTAGATTTTTAACTTAACAAAACGGACTTAAATACCTACAGCTGGTCCTCATAGGTGTTCCATTGCAGTGCACTTTAGTGCCCTGGATGGCACCTGGCCACCTGTCAGGTTTTTGTTATTAAAATCTTATTGTTGCTGGTATCACTGCTTGTTTTGCCGTGTCTCACTTTATACATCTGTTGCTTGGGCTACCTAGTGTCCAGCGTCCTACGGGCGTCGTGGCTGGTTCGAGTGCGAGGAACCTCTGGTTCATCTAGCGGTAGGCGGGTGTGTGGAAGTAGCACTTCAGACGTACCGGTTCTGTTGTGTGAAATACGGGGTCACCTCCCCCCACATACCTCTAAGGGCTTTTGAGCCTAGCGTTGGGCTACGTTCTCGCATAAGGTCGGCTATACGACGTTTGTAGGGGGTAGTGCCAAACAACCCCTGAGGTGACAGGTTCTGGTGGTGTTTAGTGAGCAGACATACAATAGACAGTGACAAC,2.84E+05
9,"Goat torovirus (nucleic acid, listed as Torovirus sp.) DNA: GTACTTACAAGCGGGTTAAACCGCCCTCCGGAACGGTTACAACCCCCTCCCGAACGTGCGCTTGACGTGACTGGTTCTCAGTCTGGCTTTCTGAGAAATACTCCAGGGTTGTATCCCACCATCTTGACCTCTGGTCATTTTGGTAACACCATAACCAAACAAACTCTACACACCTAACCCACCTCCAGCTTGCTGCAGGCCTTTTGGACTAAACGGGTTTAGGTGTTTTGTGACCAACTCGTCTACCCACCTCCAGTTTTACTGCAGGCCTTTTTGGACTAAACGGCTTTAGACTTTTGTGGTTAGTTTTTAACTACCCACTGTTTAGCCGCCAACCTGATTTTCATTGTTGTAAAATTTTGTGTTTATACACTATTTTCATACGGTTGGCAGTTTGTTTGGTTGTTTGCACAGTTTTTGTTGATACCAATTTTTACTGTGCTTTTAGTGTATTCTGCTAAGGCTGTATTTTACATACTTAGTTTGGTTGAAGCAATTTTTACAACATTTATATTGTTTTTGATTTCTAAGGTAAAGAGTCTTAGGAAACACCATAGACGCCATTCTTGTGGTGTCTAGTTCCAACTAATCTGGCAAACAAGTACCAAGTCATTGACTCACTTTGGAGTGAGACTTACGAGTACCAATTTGCCTATTTCGGACATCCATATAAAG",1.19E+05
10,"Human rhinovirus 1 (nucleic acid, listed as Rhinovirus sp.) DNA: TTAAAACTGGGTGTGGGTTGTTCCCACCCACACCACCCAATGGGTGTTGTACTCTGTTATTCCGGTAACTTTGTACGCCAGTTTTTCCCTCCCCTCCCCATCCTTTTACGTAACTTAGAAGTTTTAAATACAAGACCAATAGTAGGCAACTCTCCAGGTTGTCTAAGGTCAAGCACTTCTGTTTCCCCGGTTGATGTTGATATGCTCCAACAGGGCAAAAACAACAGATACCGTTATCCGCAAAGTGCCTACACAGAGCTTAGTAGGATTCTGAAAGATCTTTGGTTGGTCGTTCAGCTGCATACCCAGCAGTAGACCTTGCAGATGAGGCTGGACATTCCCCACTGGTAACAGTGGTCCAGCCTGCGTGGCTGCCTGCGCACCTCTCATGAGGTGTGAAGCCAAAGATCGGACAGGGTGTGAAGAGCCGCGTGTGCTCACTTTGAGTCCTCCGGCCCCTGAATGCGGCTAACCTTAAACCTGCAGCCATGGCTCATAAGCCAATGAGTTTATGGTCGTAACGAGTAATTGCGGGATGGGACCGACTACTTTGGGTGTCCGTGTTTCACTTTTTCCTTTATTAATTGCTTATGGTGACAATATATATATTGATATATATTGGCATC",7.40E+07
11,Dianke virus (nucleic acid) DNA: TGTTTTCAACCATAATACTACTACTACAAGTATAAAACCCCGTCCGTCTGTCGGAGACGCTAAACTCTGACCACCAATCTAGCCACATCAGTTGCTTAAAGAACCTCTTGAGACACTCTCCCACTTAACATCTTTTAGGAATCTTCGATGCTACAACAACTTGGCTAGTGAACAATAAATCCGTACAATTCACAGTTGTAAGAGGCCATAGGTCCAGACTTTGAAAGGTTTGTTTCTATTGTTACAAATACTTAGATTAACAGAGGCTATTTAATAGTGCTCATCACGTTAACAGAGTAACCTTGTGCAATAGTATGAGCTTGTTGTAAAACGTCTTGATACGACACC,1.35E+05
12,"Guereza hepacivirus (nucleic acid, listed as Hepacivirus sp.) DNA: CACTCAATACTACACTCCGCATTTGGGGAGAAGCGCTGGCGTTCGCGGAACCGCGTTAACCATACGCGTAGTACGAGTGCGACAGACCCCGGTGCTACTGGTGGTAGCGAGACACGAGCCGAAGTCTGTGGGGGGAACTCCACTTAGAGGGCATGCCCGGGCGTAGGCTTCTGAGTTGGGATGGGCCCCAACTTGGCCCCTGAGTGGGGGGGTGTTACGACCTGATAGGGTGCGGGCTGGCGCCTACCACTTTCCAGTCGTACATGAGTC",1.38E+05

# Source: patent US20230226096A1 (Orna Therapeutics, Inc., priority 2020, published 2023)
